± gives the standard deviation of the averaged measurements.
System: ATP
Test: switch fluorescence ratio, 500 uM ATP over buffer (Cy3 cluster intensity, sum of 5 cycles each) (fold (ratio)); higher = stronger signal-on switching upon ATP binding; sequences stand for … in TCGTCGGCAGCGTCAGATGTGTATAAGAGACAGTTTTTTTTTTTTTTTTTTTTTTTTT…TC
Settings: aptamer strand: ATP DNA aptamer (quencher-CACCTGGGGGAGTATTGCGGAGGAAGG + anchor), 100 nM annealed; ATP concentration: 500 uM
In short: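 Cy3-labelled switching-strand clusters on a modified Illumina MiSeq flow-cell were annealed to 100 nM quencher-labelled ATP aptamer, imaged in selection buffer, then imaged after 15 min with 500 uM ATP at 22 °C. Five buffer/ATP cycles ran, with NaOH stripping and re-annealing between them. The fluorescence ratio is summed target-cycle over summed buffer-cycle Cy3 intensity per cluster, averaged per switch-domain sequence. Clusters outside 100-1000 RFU were excluded.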
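Also: ATP exposure 15 min at 22 °C before imaging.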

Sequence	switch fluorescence ratio
GACATGGGTG	1.02 ± 0.031
TTAGTGGCGA	1.19 ± 0.31
CCGAAAAGAT	1.44 ± 0.59
ATTGTAAAGC	0.9935 ± 0.0083
CTTTGAAGGA	0.992 ± 0.03
AACATTTAGC	1.01 ± 0.039
GTTGGTCTAT	0.9778 ± 0.0064
TTTACATGCG	0.935 ± 0.031
TTCGAAGGTT	0.979 ± 0.017
GGAATTTCTG	0.945 ± 0.014
TGAGGTACTA	0.999 ± 0.053
GGTTAGATAG	1.01 ± 0.035
GATTCCGTGT	1.01 ± 0.031
TATTCGGATT	0.984 ± 0.03
GCTTGGATGT	1.0207 ± 0.00092
GACTTCGGGA	1.13 ± 0.052
CGGGGCAGCT	1.1 ± 0.11
AGCGGGGCTG	1.01 ± 0.029
AGTGCCGTAA	1.025 ± 0.0056
TTTTGGGGCC	1 ± 0.032
GGTGTTTTCA	0.988 ± 0.026
TTTTGTTCAC	1.01 ± 0.017
GGCGCTTAGA	1 ± 0.053
GGAGGTAGGG	0.99915 ± 0.00057
CGATGTCGTA	1.03 ± 0.034

Sequence	switch fluorescence ratio
CGGTTAAAAT	0.989 ± 0.023
GATGGCGGGA	1.02 ± 0.025
TGATTTAACC	1.05 ± 0.021
TTCGGACTGC	1.06 ± 0.031
AGATATTCGG	0.984 ± 0.07
TGTGGTCGGT	1.015 ± 0.007
ATTAGAGCGT	1.013 ± 0.0045
AATGTGAGAC	1.07 ± 0.073
GCACATGGTG	1.05 ± 0.021
GATTACAGCG	1.01 ± 0.02
TTATTACGCT	0.9981 ± 0.0094
ATATTGCGTT	1.01 ± 0.02
TGTTTAAGCG	0.958 ± 0.085
AAATCATATT	0.968 ± 0.0054
GCGATTAAG	0.981 ± 0.017
ATGAGTACAG	1.02 ± 0.027
CAATTATTCG	1.04 ± 0.052
TCGGGATCTG	0.997 ± 0.018
GTAAATTTGA	1.03 ± 0.068
ATCAGGGCGT	0.987 ± 0.032
CCGTTCCCGT	1.13 ± 0.028
ATCGGCGTAT	1.01 ± 0.012
AAGTTCCGAG	1.18 ± 0.045
TGCTTAAGAT	0.99 ± 0.023
TAGAGAATTT	0.984 ± 0.02

Sequence	switch fluorescence ratio
TGATGTTGGT	0.988 ± 0.014
ATGCAAATGC	1.41 ± 0.017
TCGGGTACGT	0.967 ± 0.032
TTGGTAGAGT	0.965 ± 0.04
TTTGCGTGTT	1.019 ± 0.0086
ATAAAATTGG	0.988 ± 0.034
TTTCAGTCGG	1.006 ± 0.0037
TGTGTTACGG	0.984 ± 0.023
GGGGTCCTAG	0.9959 ± 0.0065
TTTGTTGAGC	1.44 ± 0.66
TTATTAGGAT	0.974 ± 0.024
GGGTACGTGG	1.005 ± 0.009
AACGGACAGG	1.27 ± 0.049
TTATTCGCAA	4.457 ± 0.044
GGGTTGAAAA	0.999 ± 0.039
TTTTACCGAT	1.01 ± 0.034
ACTTTTCGGC	0.9915 ± 0.0073
TTTAGGTTCT	1.01 ± 0.026
AATGTTTTTG	1.02 ± 0.046
TATATCAGGT	1.018 ± 0.0066
GATGGCCATT	1.02 ± 0.018
TTTTCTATCT	1.06 ± 0.057
GGTGTGTGGG	1.01 ± 0.033
GGGTGGGTTT	1 ± 0.018
TAGACCGGAG	1.04 ± 0.014

Sequence	switch fluorescence ratio
CACGGCCCAA	0.9224 ± 0.0023
TTGTTAGATC	0.984 ± 0.036
CGGAAATGAA	0.9824 ± 0.0028
GGTAAAGTTG	1.07 ± 0.098
TGGATGGGGG	0.992 ± 0.022
ACGGGGGCGG	1 ± 0.033
GGAATAATTT	1.51 ± 0.73
CGAGAAGGTG	1.24 ± 0.33
AGTTTGGGTG	1.01 ± 0.0051
TCATAATTGA	0.99 ± 0.012
CGTGGTTGCA	0.989 ± 0.018
CGGTGTCAGC	1.012 ± 0.0059
TAACCTATCT	1.04 ± 0.033
AAGGGTTGGC	0.983 ± 0.094
TCTCATTGGG	0.9875 ± 0.004
CGGAGTTTTT	0.9971 ± 0.0058
TTCTGGGGCT	1.03 ± 0.017
CAATAGTTGG	0.993 ± 0.01
ATTAAAGGTC	1 ± 0.02
CGTGCAAAGA	1.77 ± 1.1
GAAAGTTAAG	1.015 ± 0.0049
GTTGTCCATA	1.015 ± 0.0029
TTGGTTACTT	1.01 ± 0.011
CCGGTGACGA	1.053 ± 0.0041
ACGGTAAGTG	1.02 ± 0.042

Sequence	switch fluorescence ratio
TTTTAAGAGT	0.992 ± 0.028
CGGGAATCTC	1.085 ± 0.0081
GTATTCAGGT	0.9921 ± 0.0035
TTACATTTTG	1.01 ± 0.026
ATTTGTGTA	0.992 ± 0.012
TAAGAAAAAT	1.062 ± 0.0081
GCTCTCGGTG	1.01 ± 0.017
TGGTTTAGTT	0.998 ± 0.017
CCTAGGGGTC	1.09 ± 0.028
GGTTAGTGTC	1.05 ± 0.047
CTCTTTGCAG	1.086 ± 0.0044
AAGGTTACGC	1.05 ± 0.024
AGACGGGGCC	1.01 ± 0.018
TTAAAGCGGC	0.993 ± 0.083
TGTTTGATGT	0.983 ± 0.019
ATATGATAGA	0.9921 ± 0.0026
TGTGCTGCTG	1.06 ± 0.02
CTCGTTCCTG	1 ± 0.031
TCGGGAGGGG	0.989 ± 0.033
GCTTATACGA	1.55 ± 0.012
TAAGCAGGGC	1.068 ± 0.0043
GCTGTAGGAT	0.984 ± 0.017
TTTAAGGTTA	0.999 ± 0.025
GTTGGAAACT	1.04 ± 0.017
TGCCGTTTTC	1.04 ± 0.011

Sequence	switch fluorescence ratio
TGAAGGGGAC	0.998 ± 0.015
GCTTCAGGGA	1.02 ± 0.019
GGTACTCTTT	1 ± 0.037
TTTGGGTTTC	0.977 ± 0.017
TAATCCTGTA	0.9994 ± 0.003
ATGTGATCGC	0.986 ± 0.042
TTTGGAGCAG	1.14 ± 0.13
TATCTACTGG	1.0076 ± 0.00035
TCGCCATCCT	1.09 ± 0.019
CCCGTCAGCG	1.02 ± 0.041
AAACAGCGTA	1.01 ± 0.032
TCCGGGTATC	1.33 ± 0.04
TATTACTCGT	1.01 ± 0.07
TTTTTCAATA	1.01 ± 0.023
TTAGAGGAAC	0.965 ± 0.028
GAAAGGTTGG	0.993 ± 0.025
CCTGTACGGA	1.004 ± 0.0067
AGCGGATTGG	1.02 ± 0.061
CGATGCAGTT	1.05 ± 0.041
GATCGGGGTA	1.014 ± 0.0071
TTAGTAGGTG	0.98 ± 0.024
TCAGTGGGGT	1.004 ± 0.0072
TGAATATATT	1.01 ± 0.022
TTTACGTGAC	1.22 ± 0.16
AATGTTTGGG	0.981 ± 0.021

Sequence	switch fluorescence ratio
CTCATAGGGA	0.983 ± 0.024
TAAGGGAATC	1.2 ± 0.31
GTTTTGGTGG	0.998 ± 0.029
TAATAGGGCG	1.01 ± 0.076
ACATAGCTTT	1.03 ± 0.036
ATAAAGGAAG	0.99 ± 0.011
GGGGAAACAG	1 ± 0.018
ATGGCTGGCG	1.07 ± 0.094
AGCCCGTCGT	0.99 ± 0.022
GCGAAGACAA	1.04 ± 0.048
TTACAGGGGC	1.11 ± 0.061
GACACAGTGT	0.98 ± 0.026
TAGGTTGTAT	0.978 ± 0.018
TTTGCTTATG	0.9924 ± 0.0045
GCGGGCCGTC	1.03 ± 0.023
TCGACTCACT	1.2 ± 0.013
AACTTAAATT	1.01 ± 0.021
CGGAATTTC	1.11 ± 0.05
TGGGTTTGTG	0.996 ± 0.033
GTTAGGTGTG	1.11 ± 0.13
GGCGATTGCG	0.979 ± 0.0041
ACGTGCAATT	1.37 ± 0.21
ATTGGGCTGT	0.993 ± 0.016
CGTCAAACAT	1.081 ± 0.0084
GATAATTGGG	0.9992 ± 0.0079

Sequence	switch fluorescence ratio
TATATGAGGG	1 ± 0.057
ATTGCCCGTC	0.992 ± 0.038
GCGGATAGAA	1.04 ± 0.017
ATGAAGATTA	0.987 ± 0.043
TTTTTTAACG	0.9973 ± 0.0053
AGGAAAAACT	1.02 ± 0.047
GTACGACAAG	1.11 ± 0.042
TTAAGTACGC	1.29 ± 0.014
AAAAGAGTGT	1.01 ± 0.023
ATAATTGGGG	0.98 ± 0.026
GCTTTAAGGG	0.995 ± 0.024
GGGCGTTGGG	0.948 ± 0.059
AACGGTAATT	1.1 ± 0.034
GATATCCGTA	0.962 ± 0.015
TGGTGGTGTG	0.983 ± 0.035
TGAAAAAAGG	0.966 ± 0.03
GTTAGAAATG	1.01 ± 0.011
TGAGTAAGGA	1.03 ± 0.034
GGGTGCGCTG	1.03 ± 0.014
AAAGGAGAGG	1.01 ± 0.05
CAATGCGGAG	1 ± 0.015
CAGGGTTTCG	1.02 ± 0.078
GGTTTTATGG	0.988 ± 0.027
TTTTTCCGCA	2.18 ± 0.83
AAATGGTGAT	1.035 ± 0.0041

Reference: the supplement of paper PMC10126150
